± gives the uncertainty stated by the source.

B1: POU domain, class 6, transcription factor 2, residues 609 to 663; numbered along this chain, P78424 (parent)
chain: KRRTSFTPQALEILNAHFEKNTHPSGQEMTEIAEKLNYDREVVRVWFCNKRQALK

Variants of B1 are the subject of the data set. Kind of data set: abundance fitness (aPCA) (normalised: wild type 0, dead -1); higher = more abundant; growth selection in yeast, the domain comes from the species named. The note with it: Homo sapiens.
Consider KRRTSFTPQAFEILNAHFEKNTHPSGQEMTEIAEKLNYDREVVRVWFCNKRQALK [L11F], for which the abundance fitness was -0.498 ± 0.24.
For KRRTSFTPQAHEILNAHFEKNTHPSGQEMTEIAEKLNYDREVVRVWFCNKRQALK [L11H], the abundance fitness was -0.482 ± 0.24.
Next, KRRTSFTPQAYEILNAHFEKNTHPSGQEMTEIAEKLNYDREVVRVWFCNKRQALK [L11Y]: -0.339 ± 0.21.
Next, KRRTSFTPQAREILNAHFEKNTHPSGQEMTEIAEKLNYDREVVRVWFCNKRQALK [L11R]: -0.222 ± 0.074; KRRTSFTPQAEEILNAHFEKNTHPSGQEMTEIAEKLNYDREVVRVWFCNKRQALK [L11E]: -0.002 ± 0.12; KRRTSFTPQASEILNAHFEKNTHPSGQEMTEIAEKLNYDREVVRVWFCNKRQALK [L11S]: -0.283 ± 0.1.
With KRRTSFTPQAQEILNAHFEKNTHPSGQEMTEIAEKLNYDREVVRVWFCNKRQALK [L11Q], the abundance fitness is -0.435 ± 0.16.
Regarding KRRTSFTPQACEILNAHFEKNTHPSGQEMTEIAEKLNYDREVVRVWFCNKRQALK [L11C], the abundance fitness is -0.409 ± 0.14.
The value for KRRTSFTPQADEILNAHFEKNTHPSGQEMTEIAEKLNYDREVVRVWFCNKRQALK [L11D] was -0.622 ± 0.25.
Next, KRRTSFTPQAPEILNAHFEKNTHPSGQEMTEIAEKLNYDREVVRVWFCNKRQALK [L11P]: -1.01 ± 0.24.
KRRTSFTPQAVEILNAHFEKNTHPSGQEMTEIAEKLNYDREVVRVWFCNKRQALK [L11V]: the abundance fitness amounted to 0.053 ± 0.095.
On to KRRTSFTPQAGEILNAHFEKNTHPSGQEMTEIAEKLNYDREVVRVWFCNKRQALK [L11G], for which the abundance fitness was -0.477 ± 0.075.
Next, KRRTSFTPQALEHLNAHFEKNTHPSGQEMTEIAEKLNYDREVVRVWFCNKRQALK [I13H]: -0.172 ± 0.27; KRRTSFTPQALEPLNAHFEKNTHPSGQEMTEIAEKLNYDREVVRVWFCNKRQALK [I13P]: -0.98 ± 0.31.
Next, KRRTSFTPQALEWLNAHFEKNTHPSGQEMTEIAEKLNYDREVVRVWFCNKRQALK [I13W]: -0.219 ± 0.14; KRRTSFTPQALESLNAHFEKNTHPSGQEMTEIAEKLNYDREVVRVWFCNKRQALK [I13S]: -0.279 ± 0.14; KRRTSFTPQALEMLNAHFEKNTHPSGQEMTEIAEKLNYDREVVRVWFCNKRQALK [I13M]: -0.218 ± 0.12.
The value for KRRTSFTPQALECLNAHFEKNTHPSGQEMTEIAEKLNYDREVVRVWFCNKRQALK [I13C] was -0.113 ± 0.18; that for KRRTSFTPQALEELNAHFEKNTHPSGQEMTEIAEKLNYDREVVRVWFCNKRQALK [I13E] was -0.251 ± 0.21.
As for KRRTSFTPQALEFLNAHFEKNTHPSGQEMTEIAEKLNYDREVVRVWFCNKRQALK [I13F], the abundance fitness is -0.113 ± 0.18.
KRRTSFTPQALEALNAHFEKNTHPSGQEMTEIAEKLNYDREVVRVWFCNKRQALK [I13A]: the abundance fitness is -0.01 ± 0.12.
Next, KRRTSFTPQALEYLNAHFEKNTHPSGQEMTEIAEKLNYDREVVRVWFCNKRQALK [I13Y]: 0.002 ± 0.15; KRRTSFTPQALEQLNAHFEKNTHPSGQEMTEIAEKLNYDREVVRVWFCNKRQALK [I13Q]: -0.132 ± 0.22.
Next, KRRTSFTPQALEGLNAHFEKNTHPSGQEMTEIAEKLNYDREVVRVWFCNKRQALK [I13G]: -0.385 ± 0.099; KRRTSFTPQALETLNAHFEKNTHPSGQEMTEIAEKLNYDREVVRVWFCNKRQALK [I13T]: -0.003 ± 0.19; KRRTSFTPQALELLNAHFEKNTHPSGQEMTEIAEKLNYDREVVRVWFCNKRQALK [I13L]: -0.017 ± 0.13.
Next, KRRTSFTPQALLILNAHFEKNTHPSGQEMTEIAEKLNYDREVVRVWFCNKRQALK [E12L]: -0.403 ± 0.11; KRRTSFTPQALRILNAHFEKNTHPSGQEMTEIAEKLNYDREVVRVWFCNKRQALK [E12R]: -0.107 ± 0.089; KRRTSFTPQALKILNAHFEKNTHPSGQEMTEIAEKLNYDREVVRVWFCNKRQALK [E12K]: -0.695 ± 0.4.
On to KRRTSFTPQALMILNAHFEKNTHPSGQEMTEIAEKLNYDREVVRVWFCNKRQALK [E12M], for which the abundance fitness was -0.222 ± 0.19.
Next, KRRTSFTPQALQILNAHFEKNTHPSGQEMTEIAEKLNYDREVVRVWFCNKRQALK [E12Q]: -0.298 ± 0.28; KRRTSFTPQALDILNAHFEKNTHPSGQEMTEIAEKLNYDREVVRVWFCNKRQALK [E12D]: -0.002 ± 0.3.
Next, KRRTSFTPQALGILNAHFEKNTHPSGQEMTEIAEKLNYDREVVRVWFCNKRQALK [E12G]: -0.105 ± 0.11; KRRTSFTPQALAILNAHFEKNTHPSGQEMTEIAEKLNYDREVVRVWFCNKRQALK [E12A]: -0.401 ± 0.14.
With KRRTSFTPQALVILNAHFEKNTHPSGQEMTEIAEKLNYDREVVRVWFCNKRQALK [E12V], the abundance fitness is -0.331 ± 0.15.
For the variant KRRTSFTPQALCILNAHFEKNTHPSGQEMTEIAEKLNYDREVVRVWFCNKRQALK [E12C], the abundance fitness was -0.261 ± 0.15.
Next, KRRTSFTPQALPILNAHFEKNTHPSGQEMTEIAEKLNYDREVVRVWFCNKRQALK [E12P]: -0.724 ± 0.18; KRRTSFTPQALWILNAHFEKNTHPSGQEMTEIAEKLNYDREVVRVWFCNKRQALK [E12W]: -0.233 ± 0.16.
Next, KRRTSFTPQALSILNAHFEKNTHPSGQEMTEIAEKLNYDREVVRVWFCNKRQALK [E12S]: -0.009 ± 0.12; KRRTSFTPQALEILLAHFEKNTHPSGQEMTEIAEKLNYDREVVRVWFCNKRQALK [N15L]: -0.15 ± 0.093; KRRTSFTPQALEILFAHFEKNTHPSGQEMTEIAEKLNYDREVVRVWFCNKRQALK [N15F]: -0.543 ± 0.33.
The value for KRRTSFTPQALEILKAHFEKNTHPSGQEMTEIAEKLNYDREVVRVWFCNKRQALK [N15K] was -0.13 ± 0.14.
With KRRTSFTPQALEILIAHFEKNTHPSGQEMTEIAEKLNYDREVVRVWFCNKRQALK [N15I], the abundance fitness was -0.78 ± 0.38.
The value for KRRTSFTPQALEILMAHFEKNTHPSGQEMTEIAEKLNYDREVVRVWFCNKRQALK [N15M] was -0.132 ± 0.11.
Consider KRRTSFTPQALEILCAHFEKNTHPSGQEMTEIAEKLNYDREVVRVWFCNKRQALK [N15C], for which the abundance fitness is -0.086 ± 0.13.
Turning to KRRTSFTPQALEILAAHFEKNTHPSGQEMTEIAEKLNYDREVVRVWFCNKRQALK [N15A], the abundance fitness was -0.247 ± 0.11.
Next, KRRTSFTPQALEILHAHFEKNTHPSGQEMTEIAEKLNYDREVVRVWFCNKRQALK [N15H]: -0.085 ± 0.16; KRRTSFTPQALEILDAHFEKNTHPSGQEMTEIAEKLNYDREVVRVWFCNKRQALK [N15D]: -0.093 ± 0.15.
